Series [1] deals with the molecule itself. Description: crystal structure; crystal form I, space group C2, 2.34 Å; 9 mg/mL SeMet PlcHR2 preparation in 50 mM NaCl, 50 mM Tris-HCl pH 7.4, 0.1 mM TCEP; reservoir 26% PEG 3350, 400 mM (NH4)2SO4, 70 mM bis-Tris-HCl pH 6.75, 2,5-hexanediol additive; eight chains in the asymmetric unit.
Series [2] concerns the molecule itself. Kind of series: crystal structure; crystal form II, space group P21, 2.56 Å; 5.3 mg/mL SeMet PlcHR2 preparation in 50 mM NaCl, 5 mM MgCl2, 50 mM Tris-HCl pH 7.4, 0.1 mM TCEP; reservoir 20% PEG 3350, 200 mM Na malonate, 100 mM MES-NaOH pH 6.75; eight chains in the asymmetric unit.

B1: Pseudomonas aeruginosa YcaC, crystal form I (Cys118 linked to propanamide) (enzyme, P. aeruginosa (endogenous in PADD1976), UniProt Q9I4D6 2-205, looked up)
chain: SFTYKRLDKNDAAVLFVDHQAGLLSLVRDFSPDEFKNNVLALADIARFFNLPTILTTSFEDGPNGPLVPELKEMFPQAPYIARPGNINAWDNEDFVKAVKATGKKQLIIAGVVTDVCVAFPTLSALEEGFDVFVVTDASGTFNPVVRDAAWARMTAAGAQLMNWFSVGCELHRDWRNDIEGFGAILGGHLPAYANLIQSFGTKK
modifications: Cys118 linked to a propanamide (acrylamide adduct); bacteria grown in minimal media with L-selenomethionine (SeMet)
notes: monomer 205 residues, 22.5 kDa; the N-formylmethionine appears to have been cleaved off; residues 204 and 205 disordered in the crystal; Not cloned: crystallised as a contaminant of a SeMet PlcHR2 preparation; identity found by molecular replacement and side chain densities; also called Pa YcaC; PA1202
B1: the stoichiometry N – broadly, a count of units in the complex or per binding partner – in series [1] was found to be 8.

B2: Pseudomonas aeruginosa YcaC, crystal form II (Cys118 as S-mercaptocysteine) (enzyme, P. aeruginosa (endogenous in PADD1976), UniProt Q9I4D6 2-205, looked up)
chain: B1 chain
modifications: Cys118 covalently modified to S-mercaptocysteine; bacteria grown in minimal media with L-selenomethionine (SeMet)
notes: monomer 205 residues, 22.5 kDa; the N-formylmethionine appears to have been cleaved off; residues 204 and 205 disordered in the crystal; Same protein and preparation route as m1; differs in the modification of Cys118 seen in the crystal; also called Pa YcaC; PA1202
As for B2, in series [2], the “stoichiometry N” value was determined as 8.

These data come from publication PMC4519933, “Crystal Structure of a Hidden Protein, YcaC, a Putative Cysteine Hydrolase from Pseudomonas aeruginosa, with and without an Acrylamide Adduct” (International Journal of Molecular Sciences, 2015).
